Assay results reported in the supplement of paper PMC10567573.

B1: FAM46C (parent)
chain: VRSRLEEAGIKVHDVRLNGSAAGH

Variants of: B1
Experiment: protein stability index of a GFP-peptide fusion (GPS, HEK-293T) (PSI 1-6); higher = more stable
Details: c terminus: a fixed tail appended
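Also: lentivirally expressed fusions sorted by FACS into six bins by GFP to DsRed ratio, PSI derived from sequencing read proportions per bin multiplied by bin number.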

Variant | protein stability index
VRSRLEEAGIKVHDVRLNGVAAGH | 2.61
VRSRLEEAGIKVHDVRLNGGAAGH | 1.94
VRSRLEEAGIKVHDVRLNGPAAGH | 1.95
VRSRLEEAGIKVHDVRLNGFAAGH | 1.35
VRSRLEEAGIKVHDVRLNGHAAGH | 2.16
VRSRLEEAGIKVHDVRLNGKAAGH | 2.28
VRSRLEEAGIKVHDVRLNGAAAGH | 2.61
VRSRLEEAGIKVHDVRLNGLAAGH | 2
VRSRLEEAGIKVHDVRLNGCAAGH | 2.45
VRSRLEEAGIKVHDVRLNGQAAGH | 2.63
VRSRLEEAGIKVHDVRLNGNAAGH | 3.2
VRSRLEEAGIKVHDVRLNGTAAGH | 1.56
VRSRLEEAGIKVHDVRLNMSAAGH | 1.83
VRSRLEEAGIKVHDVRLNFSAAGH | 2.44
VRSRLEEAGIKVHDVRLNQSAAGH | 2.74
VRSRLEEAGIKVHDVRLNPSAAGH | 1.55
VRSRLEEAGIKVHDVRLNESAAGH | 3.77
VRSRLEEAGIKVHDVRLNDSAAGH | 2.26
VRSRLEEAGIKVHDVRLNTSAAGH | 1.74
VRSRLEEAGIKVHDVRLNRSAAGH | 2.22
VRSRLEEAGIKVHDVRLNSSAAGH | 2.09
VRSRLEEAGIKVHDVRLNHSAAGH | 2.54
VRSRLEEAGIKVHDVRLNASAAGH | 2.19
VRSRLEEAGIKVHDVRLNLSAAGH | 2.16

Variant | protein stability index
VRSRLEEAGIKVHDVRLNISAAGH | 3.83
VRSRLEEAGIKVHDVRLNVSAAGH | 1.79
VRSRLEEAGIKVHDVRINGSAAGH | 2.53
VRSRLEEAGIKVHDVRRNGSAAGH | 3.52
VRSRLEEAGIKVHDVRENGSAAGH | 4.2
VRSRLEEAGIKVHDVRPNGSAAGH | 2.6
VRSRLEEAGIKVHDVRANGSAAGH | 3.15
VRSRLEEAGIKVHDVRKNGSAAGH | 4.53
VRSRLEEAGIKVHDVRSNGSAAGH | 4.33
VRSRLEEAGIKVHDVRNNGSAAGH | 3.75
VRSRLEEAGIKVHDVRCNGSAAGH | 2.61
VRSRLEEAGIKVHDVRQNGSAAGH | 4.23
VRSRLEEAGIKVHDVRGNGSAAGH | 4.55
VRSRLEEAGIKVHDVRVNGSAAGH | 2.67
VRSRLEEAGIKVHDVRDNGSAAGH | 4
VRSRLEEAGIKVHDVRFNGSAAGH | 2.47
VRSRLEEAGIKVHDVRLNGSAVGH | 3.25
VRSRLEEAGIKVHDVRLNGSAWGH | 2.68
VRSRLEEAGIKVHDVRLNGSACGH | 1.65
VRSRLEEAGIKVHDVRLNGSAMGH | 2.66
VRSRLEEAGIKVHDVRLNGSASGH | 2.17
VRSRLEEAGIKVHDVRLNGSAYGH | 1.94
VRSRLEEAGIKVHDVRLNGSAFGH | 1.25
VRSRLEEAGIKVHDVRLNGSAPGH | 2.37

Variant | protein stability index
VRSRLEEAGIKVHDVRLNGSARGH | 2.17
VRSRLEEAGIKVHDVRLNGSAIGH | 2.74
VRSRLEEAGIKVHDVRLNGSAQGH | 2.1
VRSRLEEAGIKVHDVRLNGSANGH | 2.25
VRSRLEEAGIKVHDVRLNGSAEGH | 2.12
VRSRLEEAGIKVHDVRLNGSAGGH | 2.86
VRSRLEEAGIKVHDVRLKGSAAGH | 3.56
VRSRLEEAGIKVHDVRLEGSAAGH | 1.53
VRSRLEEAGIKVHDVRLLGSAAGH | 1.16
VRSRLEEAGIKVHDVRLQGSAAGH | 1.96
VRSRLEEAGIKVHDVRLDGSAAGH | 2.81
VRSRLEEAGIKVHDVRLPGSAAGH | 3.12
VRSRLEEAGIKVHDVRLMGSAAGH | 3.59
VRSRLEEAGIKVHDVRLCGSAAGH | 2.64
VRSRLEEAGIKVHDVRLTGSAAGH | 1.87
VRSRLEEAGIKVHDVRLWGSAAGH | 2.13
VRSRLEEAGIKVHDVRLGGSAAGH | 2.02
VRSRLEEAGIKVHDVRLYGSAAGH | 1.62
VRSRLEEAGIKVHDVRLVGSAAGH | 2.7
VRSRLEEAGIKVHDVRLSGSAAGH | 4.1
VRSRLEEAGIKVHDVQLNGSAAGH | 2.68
VRSRLEEAGIKVHDVDLNGSAAGH | 4.37
VRSRLEEAGIKVHDVWLNGSAAGH | 1.66
VRSRLEEAGIKVHDVYLNGSAAGH | 2.64

Variant | protein stability index
VRSRLEEAGIKVHDVKLNGSAAGH | 2.49
VRSRLEEAGIKVHDVHLNGSAAGH | 2.54
VRSRLEEAGIKVHDVFLNGSAAGH | 2.25
VRSRLEEAGIKVHDVVLNGSAAGH | 2.63
VRSRLEEAGIKVHDVSLNGSAAGH | 2.68
VRSRLEEAGIKVHDVELNGSAAGH | 4.63
VRSRLEEAGIKVHDSRLNGSAAGH | 3.35
VRSRLEEAGIKVHDPRLNGSAAGH | 3.65
VRSRLEEAGIKVHDYRLNGSAAGH | 2.61
VRSRLEEAGIKVHDRRLNGSAAGH | 3.75
VRSRLEEAGIKVHDNRLNGSAAGH | 3.62
VRSRLEEAGIKVHDVRLNGSAAGQ | 2.67
VRSRLEEAGIKVHDVRLNGSAAGS | 3.07
VRSRLEEAGIKVHDVRLNGSAAGE | 3.66
VRSRLEEAGIKVHDVRLNGSAAGD | 2.7
VRSRLEEAGIKVHDVRLNGSAAGM | 2.15
VRSRLEEAGIKVHDVRLNGSAAGA | 3.06
VRSRLEEAGIKVHDVRLNGSAAGW | 3.51
VRSRLEEAGIKVHDVRLNGSAAGI | 2.01
VRSRLEEAGIKVHDVRLNGSAAGN | 3.78
VRSRLEEAGIKVHDVRLNGSAAGP | 2.76
VRSRLEEAGIKVHDVRLNGSAAEH | 2.3
